Where a SMILES comes first, the peptide text is derived from it. Where no end group is shown, it is not given here.
How the values were obtained:
CCKAR = molecular target: T1, CCKAR (Rattus norvegicus, UniProt P30551); assay: Inhibition of CCK-8-induced intracellular calcium release in CHO cells stably transfected with rat CCKAR; format: cell-based
T1 construct: expressed in transfected cells; host or cells: CHO cells
T1 sequence (P30551 1-444): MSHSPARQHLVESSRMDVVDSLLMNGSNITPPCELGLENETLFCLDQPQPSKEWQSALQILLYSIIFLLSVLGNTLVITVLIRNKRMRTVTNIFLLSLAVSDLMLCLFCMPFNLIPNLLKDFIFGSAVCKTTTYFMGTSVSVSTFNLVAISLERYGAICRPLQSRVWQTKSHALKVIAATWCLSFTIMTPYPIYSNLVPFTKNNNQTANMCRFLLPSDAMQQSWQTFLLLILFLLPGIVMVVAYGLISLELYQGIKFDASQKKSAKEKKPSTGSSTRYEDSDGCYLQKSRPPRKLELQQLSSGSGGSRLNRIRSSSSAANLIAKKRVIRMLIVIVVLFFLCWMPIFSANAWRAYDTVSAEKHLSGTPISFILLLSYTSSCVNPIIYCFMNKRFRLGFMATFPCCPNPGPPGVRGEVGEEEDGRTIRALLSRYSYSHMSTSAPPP
Protocol: The activity of peptides from the CCKAR transmembrane domain were tested in transfected CHO cells that stably express rat CCKAR (Tarasova et al. (1997), J. Biol. Chem. 272: 14817–14824). Sulfated cholecystokinin octapeptide was the CCKAR agonist. Determination of intracellular calcium release was performed as described in example 1 above.
(§1) None of CCKAR-derived peptides served as antagonists of chemokine receptors and none could inhibit HIV-1 infection. The activity of the antagonists in inhibiting signaling through the receptor was compared to the ability to prevent agonist binding (Table 4). Inhibition of signaling was assessed in CCK-8 evoked intracellular calcium release in FURA-2/AM treated CHO cells stably transfected with rat CCKAR (Tarasova, et al. (1997) J. Biol. Chem. 272:14817). Inhibition of ligand binding was measured with the use of a fluorescent agonist, rhodamine green CCK-8 (RG-CCK-8) and quantitative confocal laser scanning microscopy (Tarasova, et al. (1997) J. Biol. Chem. 272:14817). Peptides derived from the first, second, and sixth transmembrane domains inhibited CCK-induced signaling through the CCKAR receptor.

CXCR4 receptor [1] = molecular target: CXCR4 receptor (Homo sapiens, UniProt P61073); assay: Inhibition of SDF-1α-induced intracellular calcium release (Fura-2/AM) in HeLa and U87 cells; format: cell-based
Sequence of CXCR4 receptor (Homo sapiens, UniProt P61073) (P61073 whole entry): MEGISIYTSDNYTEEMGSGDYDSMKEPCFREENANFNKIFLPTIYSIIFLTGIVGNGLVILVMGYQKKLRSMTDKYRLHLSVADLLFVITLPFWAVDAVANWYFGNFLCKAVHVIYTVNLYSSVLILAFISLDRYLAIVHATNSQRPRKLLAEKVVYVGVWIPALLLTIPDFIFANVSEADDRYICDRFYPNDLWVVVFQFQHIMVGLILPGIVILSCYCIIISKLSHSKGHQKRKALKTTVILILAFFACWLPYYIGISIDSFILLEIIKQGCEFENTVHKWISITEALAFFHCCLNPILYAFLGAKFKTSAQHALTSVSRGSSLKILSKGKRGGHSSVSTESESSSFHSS
Protocol: The effect of the peptides on CXCR4-mediated calcium fluxes in HeLa cells that naturally express the CXCR4 receptor and U87 cells stably expressing the CXCR4 receptor was tested as follows. Cells grown on Nunc cover glass chamber slides were incubated with 1 micromolar Fura-2/AM for 20 min in a CO2-incubator, rinsed with PBS and mounted on the stage of a Zeiss Axiovert inverted microscope. [Ca^2+]i measurements were performed using an Attofluor digital imaging system (Atto Instruments, Rockville, Md.). Fluorescence of Fura was excited at alternating wavelength of 340 and 380 nm. […] Calibrations of [Ca^2+]i signals were performed using Ca^2+ standards containing 1 micromolar Fura. CXCR4 antagonists were tested on HeLa cells and U87 cells. Stromal cell-derived factor-1α (SDF-1α) was used as a specific CXCR4 agonist. CCR5 antagonists, which were used in selectivity studies as described below, were tested on HEK (human kidney […]) cells stably expressing the CCR5 receptor and RANTES was used as an agonist. The antagonist activity of the peptides was evaluated by measuring the inhibition of agonist-evoked intracellular Ca^2+i release. These measurements were carried out in Fura-2/AM-treated cells, utilizing an Attofluor digital imaging system as described above. The agonist was SDF-1 α.

LAV strain of HIV-1 = assay: Anti-HIV-1 assay, CEM-SS cells infected with LAV strain, p24 ELISA; format: cell-based; settings: FIG. 1
Protocol: The ability of synthetic CXCR4-derived peptides of Table 1 to inhibit HIV-1 infection of CEM-SS cells was tested using an LAV strain of the virus that is known to utilize CXCR4 as a co-receptor. Anti-HIV-1 assay. Buckheit et al. (1993) Antiviral Research 21: 247. The CEM-SS cells were maintained in RPMI 1640 medium containing 10% fetal bovine serum. The cells were placed in each well of a 96-well microtiter plate to a density of 5×10^3 cells per well. The cells were infected with HIV-1 virus at a multiplicity of infection (MOI) previously determined to produce maximal level of viral production at 6 days post infection (MOI of 0.01).
Serial half-log dilutions of test compound were added to appropriate wells in triplicate to evaluate their ability to inhibit HIV-1 infection. AZT was used in parallel as a positive control. Following 6 days of incubation at 37° C., the presence and relative abundance of viral p24 protein was determined by ELISA in cell-free supernatants derived from each well of the microtiter plate. The p24 ELISA kit was purchased from the AIDS Vaccine Program, NCI, FCRDC (Frederick, Md.) and the assay was performed according to the manufacturer's instructions.

CCR5 receptor = molecular target: T2, CCR5 receptor (Homo sapiens, UniProt P51681); assay: Inhibition of agonist (RANTES)-evoked intracellular calcium release through CCR5; format: cell-based; settings: U87 cells as printed
T2 construct: expressed in transfected cells
T2 sequence (P51681 whole entry): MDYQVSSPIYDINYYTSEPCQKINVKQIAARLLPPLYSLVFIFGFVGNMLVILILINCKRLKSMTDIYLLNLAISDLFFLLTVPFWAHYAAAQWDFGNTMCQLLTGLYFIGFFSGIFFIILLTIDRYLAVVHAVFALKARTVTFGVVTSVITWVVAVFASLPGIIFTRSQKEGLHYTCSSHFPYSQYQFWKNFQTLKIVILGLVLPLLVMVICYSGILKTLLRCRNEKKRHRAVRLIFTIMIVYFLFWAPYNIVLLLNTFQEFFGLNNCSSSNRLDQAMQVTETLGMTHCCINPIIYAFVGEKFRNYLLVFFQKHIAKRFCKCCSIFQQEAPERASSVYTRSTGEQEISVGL
Protocol: CCR5 antagonists, which were used in selectivity studies as described below, were tested on HEK (human kidney […]) cells stably expressing the CCR5 receptor and RANTES was used as an agonist. The antagonist activity of the peptides was evaluated by measuring the inhibition of agonist-evoked intracellular Ca^2+i release. These measurements were carried out in Fura-2/AM-treated cells, utilizing an Attofluor digital imaging system as described above. The agonist was SDF-1 α.

[2] = molecular target: T3, rat cholecystokinin receptor type A (CCKAR) (rat, UniProt P30551 1-444); assay: cell-based or functional assay
T3 sequence (looked up): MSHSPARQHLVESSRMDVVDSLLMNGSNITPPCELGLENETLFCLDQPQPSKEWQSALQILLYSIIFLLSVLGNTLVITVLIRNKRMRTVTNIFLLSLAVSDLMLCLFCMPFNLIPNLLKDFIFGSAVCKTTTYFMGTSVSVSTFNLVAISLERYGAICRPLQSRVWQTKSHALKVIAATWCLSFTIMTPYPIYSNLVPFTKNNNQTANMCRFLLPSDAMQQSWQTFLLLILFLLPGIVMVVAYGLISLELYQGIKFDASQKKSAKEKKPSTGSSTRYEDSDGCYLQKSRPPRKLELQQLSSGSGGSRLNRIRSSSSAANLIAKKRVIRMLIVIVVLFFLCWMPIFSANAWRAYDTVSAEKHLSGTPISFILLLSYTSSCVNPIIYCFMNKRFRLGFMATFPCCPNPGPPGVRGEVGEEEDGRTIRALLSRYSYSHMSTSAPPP

[3] = molecular target: T3, rat cholecystokinin receptor type A …; assay: inhibition of binding of fluorescent agonist RG-CCK-8 to CHO cells expressing rat CCKAR, quantitative confocal laser scanning microscopy
Protocol: as §1, with “*J.” for “J.”, “Chem.*” for “Chem.”, “receptor. […] A peptide derived from the sixth domain, CCKAR-6-1, was active in inhibition of signaling, but had very low activity in inhibition of RG-CCK-8 binding.” for “receptor.”

CXCR4 receptor [4] = molecular target: T4, CXCR4 receptor (UniProt P61073 1-352, limits assumed); assay: cell-based or functional assay
T4 sequence (P61073 whole entry): as the sequence (P61073 whole entry) above

CXCR4 receptor [5] = molecular target: T4, CXCR4 receptor; assay: cell-based or functional assay; remark: listed apart in the source
CXCR4 receptor [6] = molecular target: T4, CXCR4 receptor; assay: cell-based or functional assay; remark: listed apart in the source
CXCR4 receptor [7] = molecular target: T4, CXCR4 receptor; assay: cell-based or functional assay; remark: listed apart in the source

Molecule: CSCC[C@H](NC(=O)[C@H](CC(C)C)NC(=O)[C@H](CC(=O)O)NC(=O)[C@H](CO)NC(=O)[C@@H](NC(=O)[C@H](C)NC(=O)[C@H](CC(C)C)NC(=O)[C@H](CO)NC(=O)[C@H](CC(C)C)NC(=O)[C@H](CC(C)C)NC(=O)[C@@H](N)Cc1ccccc1)C(C)C)C(=O)N[C@@H](CC(C)C)C(=O)N[C@@H](CS)C(=O)N[C@@H](CC(C)C)C(=O)N[C@@H](Cc1ccccc1)C(=O)N[C@@H](CS)C(=O)N[C@@H](CCSC)C(=O)N1CCC[C@H]1C(=O)N[C@@H](Cc1ccccc1)C(=O)N[C@@H](CC(N)=O)C(=O)N[C@@H](CC(C)C)C(=O)N1CCC[C@H]1C(=O)O [CCKAR-TM-2-1] (H-FLLSLAVSDLMLCLFCMPFNLP-OH)
- Concentration, required for inhibition of signaling (CCKAR; CCK-8-induced intracellular calcium release): 2 µM
- Potency in inhibition of ligand signaling compared with binding (CCKAR; signaling versus RG-CCK-8 binding): comparable potencies

Molecule: CC[C@H](C)[C@H](NC(=O)[C@@H](NC(=O)[C@H](Cc1ccccc1)NC(=O)[C@H](CC(C)C)NC(=O)[C@@H](N)CC(C)C)C(C)C)C(=O)N[C@H](C(=O)N[C@@H](CC(C)C)C(=O)N1CCC[C@H]1C(=O)N[C@@H](Cc1ccccc1)C(=O)N[C@@H](Cc1c[nH]c2ccccc12)C(=O)N[C@@H](C)C(=O)N[C@H](C(=O)N[C@@H](CC(=O)O)C(=O)N[C@@H](C)C(=O)N[C@H](C(=O)N[C@@H](C)C(=O)N[C@@H](CC(N)=O)C(=O)N[C@@H](Cc1c[nH]c2ccccc12)C(=O)N[C@@H](Cc1ccc(O)cc1)C(=O)N[C@@H](Cc1ccccc1)C(=O)NCC(=O)N[C@@H](CC(N)=O)C(=O)N[C@@H](CC(=O)O)C(=O)N[C@@H](CC(=O)O)C(=O)O)C(C)C)C(C)C)[C@@H](C)O [Peptide F-2-2] (H-LLFVITLPFWAVDAVANWYFGNDD-OH; N-terminus and C-terminus assumed)
- Concentration at which signal transduction was completely blocked (CXCR4 receptor [1]): 0.2 µM
- Concentration, required for inhibition of signal transduction (CXCR4 receptor [1]; SDF-1α-induced intracellular calcium release, Table 2): 0.2 µM
- Concentration, required for complete inhibition of [Ca^2+I] release (CXCR4 receptor [1]; TM2-derived peptides, Table 3): 0.2 µM
- Concentration that completely inhibited infection (LAV strain of HIV-1): 5 µM

Molecule: LFFL LTVPFWAHYAAAQWDFGDD (LFFLLTVPFWAHYAAAQWDFGDD; CCR5-TM-2-2 GPCR CCR5)
- Concentration at which agonist induced signaling of the receptor was completely abolished (CCR5 receptor): 500 nM
- Antagonist activity on CXCR4 signaling, in words (CXCR4 receptor [1]): no effect

Molecule: VIAATWCLSFTIMTPYPIYSNLVPFTDD [CCKAR-TM-4-2 (#71)]
- Concentration, required for inhibition of signaling (CCK-8-induced intracellular calcium release) [2]: > 50 µM

Molecule: DDQTFLLLILFLLPGIVMVVAYGL [CCKAR-TM-5-3 (#45)]
- Concentration, required for inhibition of signaling (CCK-8-induced intracellular calcium release) [2]: > 50 µM

Molecule: FLLSLAVSDLMLCLFCMPFNLP (also called CCKAR-2-1; CCKAR-TN-2-1) [CCKAR-TM-2-1]
- Concentration, required for inhibition of signaling (CCK-8-induced intracellular calcium release) [2]: 2 µM
- IC50 [3]: 0.5 µM

Molecule: ALAFFHCCLNPILYAFLGAK-NH2 (cysteine pairing not given here) [F-7-1]
- Concentration, required for complete inhibition of [Ca^2+I] release (SDF-1α-induced) (CXCR4 receptor [4]): > 100 µM

Molecule: LLFVITLPFWAVDAVANDD [F-2-5]
- Concentration, required for complete inhibition of [Ca^2+I] release (CXCR4 receptor [5]): 10 µM
- potency relative to F-2-2 (CXCR4 receptor [6]): 20 fold

Molecule: IVVLFFLCWMPIFSANAWRAYDTVDD [CCKAR-TM-6-4 (#77)]
- Concentration, required for inhibition of signaling (CCK-8-induced intracellular calcium release) [2]: 5 µM
- IC50 [3]: > 50 µM

Molecule: LLFVITLPFWAVDAVANWYFGN [F-2-1]
- Concentration, required for complete inhibition of [Ca^2+I] release (SDF-1α-induced) (CXCR4 receptor [4]): 5 µM
- Concentration, required for complete inhibition of [Ca^2+I] release (CXCR4 receptor [5]): 5 µM
- antagonist potency relative to F-2-2 (CXCR4 receptor [6]): > 10 fold

Molecule: LLFVITLPFWAVDAVANWYFGNKK [F-2-8]
- Concentration, required for complete inhibition of [Ca^2+I] release (CXCR4 receptor [5]): 20 µM
- antagonist activity relative to F-2-2 (CXCR4 receptor [6]): 100 fold

B1: CCKAR-TM-1-6 (peptide)
peptide: DDEWQSALQILLYSIIFLLSVLGNTLVITV
notes: Synthetic peptide from the first transmembrane domain of rat CCKAR
- Concentration, required for inhibition of signaling (CCK-8-induced intracellular calcium release) [2]: 50 µM
- IC50 [3]: 20 µM

Molecule: VILILAFFACWLPYYIGISID [F-6-1]
- Concentration, required for complete inhibition of [Ca^2+I] release (SDF-1α-induced) (CXCR4 receptor [4]): 10 µM
- Concentration, required for inhibition of signal transduction (µM) (SDF-1α-induced intracellular calcium release) (CXCR4 receptor [7]): 10 µM
- EC50 in anti-HIV-1 assay (µM) (cytoprotection, CEM-SS cells infected with HIV-1RF) (CXCR4 receptor [7]): > 50 µM

From patent US7105488B1, “G protein-coupled receptor antagonists” (priority 1998, dated 2006)
